Reference: PMC8894450, “Structural basis of leukotriene B4 receptor 1 activation” (Nature Communications, 2022)

Molecular target: T1, human dominant-negative Gαi1 (S47N, G203A, A326S and E245A) (human, UniProt P63096 1-354, S47N | G203A | A326S | E245A)
T1 construct: The alpha-helical domain had no clear density in the map; also called Gα subunit; Gαi subunit; source: Sf9 cells co-infected with baculoviruses encoding each component; co-purified with the BLT1/Gi complex
Test: cryo-EM structure; single-particle cryo-EM of the LTB4-bound BLT1/Gi complex (with scFv16, NanoBiT tether); components co-expressed in Sf9, complex purified on amylose, TEV cut, gel filtration in 25 mM Hepes pH 7.5, 150 mM NaCl, LMNG/GDN/CHS; LTB4 300 nM throughout
Settings: both partners purified

T1 sequence (P63096 whole entry S47N/G203A/E245A/A326S, the tested form may be a part): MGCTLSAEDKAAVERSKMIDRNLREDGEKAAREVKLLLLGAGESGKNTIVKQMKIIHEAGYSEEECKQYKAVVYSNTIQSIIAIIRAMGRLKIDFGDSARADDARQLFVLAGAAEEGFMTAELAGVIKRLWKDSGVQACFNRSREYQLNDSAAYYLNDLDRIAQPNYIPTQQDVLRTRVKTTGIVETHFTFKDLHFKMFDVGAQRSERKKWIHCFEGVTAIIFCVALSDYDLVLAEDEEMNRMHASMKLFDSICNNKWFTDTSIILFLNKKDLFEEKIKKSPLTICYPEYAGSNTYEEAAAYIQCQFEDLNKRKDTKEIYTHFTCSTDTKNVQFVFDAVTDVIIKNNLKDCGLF

B1: engineered human leukotriene B4 receptor 1 (BLT1) with 4 thermostabilizing mutations and a C-terminal LgBiT fusion (receptor)
chain: MNTTSSAAPPSLGVEFISLLAIILLSVALAVGLPGNSFVVWSILKRMQKRSVTALMVLNLALADLAVLLTAPFFLHFLAQGTWSFGLAGCRLCHYVCGVSMYASVWLITAMSLDRSLAVARPFVSQKLRTKAMARRVLAGIWVLSFLLATPVLAYRTVVPWKTNMSLCFPRYPSEGHRAFHLIFEAVTGFLLPFLIVVASYSDIGRRLQARRFRRSRRTGRLVVLIILTFAAFWLPYHVVNLAEAGRALAGQAAGLGLVGKRLSLARNVLIALAFLSSSVNPVLYAFAGGGLLRSAGVGFVAKLLEGTGAEASSTRRGGSLGQTARSGPAALEPGPSESLTASSPLKLNELN
notes: human leukotriene B4 receptor 1 (BLT1), codon-optimized gene; model lacks the first 14 residues and the C-tail after residue 301; A TEV site stands between LgBiT and 2x MBP; LgBiT on the receptor pairs with HiBiT on Gbeta1 (NanoBiT tethering strategy); also called BLT1R; the receptor; source: Sf9 cells co-infected with baculoviruses encoding each component; complex purified (amylose column, TEV …)
B1: binds.
